Results taken from patent publication US20250223354A1 (BIOTHEUS, published 2025).
Read-outs that look alike come from different tables or passages of the source. Blank lines part the entries; values can stand above or below the binder they belong to.

Key:
[1] = target: T1, human TIGIT expressed on cells (human, UniProt Q495A1 22-244); experiment: flow cytometry, CHO-huTIGIT cells
T1 construct: whole, on cells; cDNA encoding human TIGIT in pCHO1.0 for CHO cells; also called CHO-huTIGIT cells
T1 sequence (looked up): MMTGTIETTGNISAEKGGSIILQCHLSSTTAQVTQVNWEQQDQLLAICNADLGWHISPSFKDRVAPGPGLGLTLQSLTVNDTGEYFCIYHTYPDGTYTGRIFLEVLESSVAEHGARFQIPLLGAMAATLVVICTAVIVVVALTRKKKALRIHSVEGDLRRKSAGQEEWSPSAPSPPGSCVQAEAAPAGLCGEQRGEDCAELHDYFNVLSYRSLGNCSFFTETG
Excerpt: (§1) Specifically, CHO cells overexpressing human TIGIT (CHO-huTIGITcells), CHO cells overexpressing cynomolgus TIGIT (CHO-cynoTIGIT cells) and CHO cells overexpressing mouse TIGIT (CHO-muTIGIT cells) were generated by transfection of the pCHO1.0 vector (purchased from Invitrogen) with cDNA encoding human TIGIT, cynomolgus TIGIT and mouse TIGIT cloned into the multiple cloning site (MCS), respectively, followed by pressure screening. The overexpressing cells were expanded and adjusted to an appropriate cell density, and added to a 96-well flow cytometry plate. After centrifugation, the cells were added with a gradiently diluted sample to be tested, and incubated at 4° C. for 30 minutes. The cells were washed twice with PBS, and added with a fluorescent secondary antibody correspondingly diluted to an appropriate concentration, then incubated at 4° C. for 30 minutes, and washed twice with PBS. Cells were resuspended with PBS, and detected on a CytoFlex flow cytometer, and the corresponding MFI was calculated. Graphpad software was used for graphical analysis to obtain EC₅₀ values.

[2] = target: T1, human TIGIT expressed on cells; experiment: flow cytometry, competition with human CD155-mouse IgG2a Fc (2 ug/mL) on CHO-huTIGIT cells
Description: (§2) Specifically, the CHO-huTIGIT cells were expanded and adjusted to a cell density of 2×10⁶ cells/mL, added to a 96-well flow plate at 100 μL/well, and centrifuged for later use. The purified antibody was diluted 3-fold with PBS starting at 400 nM for a total of 12 concentration gradients. The diluted sample was added at 60 μL/well to the cells-carrying 96-well flow plate, and incubated at 4° C. for 30 minutes. […] APC-conjugated goat anti-mouse IgG antibody diluted 100-fold with PBS was added at 100 μL/well, incubated at 4° C. for 30 minutes, and washed twice with PBS. Cells were resuspended with PBS at 100 μL/well, and detected on a CytoFlex flow cytometer, and the corresponding MFI was calculated.

[3] = target: T2, mouse TIGIT overexpressed on CHO cells (mouse, UniProt P86176 29-249); experiment: flow cytometry, CHO-muTIGIT cells
T2 construct: whole, on cells; also called CHO-muTIGIT cells
T2 sequence (looked up): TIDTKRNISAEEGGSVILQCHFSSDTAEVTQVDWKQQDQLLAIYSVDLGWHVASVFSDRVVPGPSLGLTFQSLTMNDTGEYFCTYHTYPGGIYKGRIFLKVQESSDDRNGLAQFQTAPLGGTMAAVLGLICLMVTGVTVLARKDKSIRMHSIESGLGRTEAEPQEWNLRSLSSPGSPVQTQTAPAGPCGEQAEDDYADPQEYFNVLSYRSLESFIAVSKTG
Excerpt: as §1

[4] = target: T3, cynomolgus TIGIT overexpressed on CHO cells (cynomolgus, UniProt A0A7N9I9V4 89-312); experiment: flow cytometry, CHO-cynoTIGIT cells
T3 construct: whole, on cells; also called CHO-cynoTIGIT cells
T3 sequence (A0A7N9I9V4 entry or part of it): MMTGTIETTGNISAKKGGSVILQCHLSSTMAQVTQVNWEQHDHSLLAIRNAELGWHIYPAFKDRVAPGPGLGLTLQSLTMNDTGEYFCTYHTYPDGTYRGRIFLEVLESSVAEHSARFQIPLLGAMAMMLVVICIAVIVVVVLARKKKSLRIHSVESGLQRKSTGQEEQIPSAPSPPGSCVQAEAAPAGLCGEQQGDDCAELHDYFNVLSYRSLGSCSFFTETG
Excerpt: as §1

human TIGIT-his protein [5] = target: T4, human TIGIT-his protein (human, UniProt Q495A1 22-141); experiment: BLI (ForteBio), antibody on AHQ sensor, 100 nM antigen, monovalent, 1:1 model
T4 construct: not shown: his tag
T4 sequence: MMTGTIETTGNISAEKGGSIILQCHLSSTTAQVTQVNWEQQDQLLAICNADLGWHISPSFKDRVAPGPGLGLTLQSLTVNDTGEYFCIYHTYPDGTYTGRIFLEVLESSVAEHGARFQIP
Description: (§3) The antibody-loaded sensor was incubated in 100 nM target antigen to the plateau phase, and then the sensor was transferred to an analysis buffer and incubated for at least 2 minutes for measuring dissociation rate. The kinetic analysis was performed using a 1:1 binding model.

[6] = target: T5, cynomolgus monkey TIGIT-his protein (cynomolgus monkey); experiment: as above
T5 construct: also called Cynomolgus TIGIT-his; not shown: his tag
T5 sequence (chain, as listed by the source): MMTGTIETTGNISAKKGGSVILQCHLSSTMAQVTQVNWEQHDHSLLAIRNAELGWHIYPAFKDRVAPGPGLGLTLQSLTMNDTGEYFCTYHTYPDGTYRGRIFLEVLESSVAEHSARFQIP
Description: as §3

[7] = target: T2, mouse TIGIT overexpressed on CHO cells; experiment: flow cytometry, competition with mouse CD155-mouse IgG2a Fc (2 ug/mL) on CHO-muTIGIT cells
Description: as §2, with “The CHO-muTIGIT” for “Specifically, the CHO-huTIGIT”, “calculated. Graphpad software was used for graphing analysis to obtain IC₅₀ values.” for “calculated.”

[8] = target: T1, human TIGIT expressed on cells; experiment: flow cytometry, CHO-huTIGIT cells; remark: listed apart in the source
Excerpt: as §1, with “(CHO-huTIGIT cells),” for “(CHO-huTIGITcells),”

mouse TIGIT-his protein = target: T6, mouse TIGIT-his protein (mouse, UniProt P86176 29-148); experiment: BLI (ForteBio), IgG on AHQ sensor, monovalent
T6 construct: not shown: his tag
T6 sequence: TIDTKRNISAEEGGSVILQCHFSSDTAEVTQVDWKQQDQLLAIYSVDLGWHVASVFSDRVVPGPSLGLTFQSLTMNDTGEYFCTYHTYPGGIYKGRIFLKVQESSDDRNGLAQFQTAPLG
Description: (§4) The antibody-loaded sensor was incubated in 100 nM TIGIT-his antigen to the plateau phase, and then the sensor was transferred to an analysis buffer and incubated for at least 2 minutes for measuring dissociation rate. The kinetic analysis was performed using a 1:1 binding model.

[9] = target: T1, human TIGIT expressed on cells; experiment: flow cytometry on CHO cells overexpressing human TIGIT, median fluorescence intensity PE-A; unit from the concentration axis
Excerpt: as §1, with “(CHO-huTIGIT cells),” for “(CHO-huTIGITcells),”

[10] = target: T3, cynomolgus TIGIT overexpressed on CHO …; experiment: flow cytometry on CHO cells overexpressing cynomolgus TIGIT, median fluorescence intensity PE-A; unit from the concentration axis
Excerpt: as §1, with “(CHO-huTIGIT cells),” for “(CHO-huTIGITcells),”

human TIGIT-his protein [11] = target: T4, human TIGIT-his protein; experiment: BLI (ForteBio), IgG on AHQ sensor, 100 nM TIGIT-his, monovalent, 1:1 model
Description: (§5) Biofilm layer optical interference technology (ForteBio) was used to determine the binding and dissociation […] values of the anti-TIGIT monoclonal antibodies obtained in Example 1 to human, cynomolgus monkey and mouse TIGIT. Fortebio affinity measurements were performed according to existing methods (Este, P et al., High throughput solution-based measurement of antibody-antigen affinity and epitope binning. Mabs, 2013.5(2): p 270-8).
as §4

[12] = target: T5, cynomolgus monkey TIGIT-his protein; experiment: as above
Description: as §5, §4

[13] = target: T3, cynomolgus TIGIT overexpressed on CHO …; experiment: flow cytometry, CHO-cynoTIGIT cells; remark: listed apart in the source
Excerpt: as §1, with “(CHO-huTIGIT cells),” for “(CHO-huTIGITcells),”

[14] = target: T2, mouse TIGIT overexpressed on CHO cells; experiment: flow cytometry, CHO-muTIGIT cells; remark: listed apart in the source
Excerpt: as §1, with “(CHO-huTIGIT cells),” for “(CHO-huTIGITcells),”

[15] = target: T1, human TIGIT expressed on cells; experiment: flow cytometry blocking assay: binding of human CD155 protein with mouse IgG2a Fc tag to CHO cells overexpressing human TIGIT, median fluorescence intensity APC-A; unit from the concentration axis
Description: as §2, with “monoclonal antibodies were” for “antibody was”

[16] = target: T1, human TIGIT expressed on cells; experiment: flow cytometry, competition with human CD155-mouse IgG2a Fc (2 ug/mL) on CHO-huTIGIT cells; remark: listed apart in the source
Description: as §2, with “monoclonal antibodies were” for “antibody was”

[17] = target: T1, human TIGIT expressed on cells; experiment: flow cytometry on activated human primary T cells (TIGIT), readout positive cell (%); unit from the concentration axis
Excerpt: The binding activity of the anti-TIGIT antibody of the present invention to TIGIT on the surface of activated T cells was detected based on the flow cytometry detection method.
Specifically, human PBMC were sorted according to the experimental protocol provided by […] Company (stemcell, Cat. No.: #17951C) to obtain human total T cells. […] The activated T cells were adjusted to an appropriate cell density and added to a 96-well flow cytometry plate. After centrifugation, the gradiently diluted sample to be tested was added, and incubated at 4° C. for 30 minutes. Washing was carried out twice with PBS, and a fluorescent secondary antibody diluted to an appropriate concentration was added, incubated at 4° C. for 30 minutes, and washed twice with PBS. […]

EC50 [1]: 1.43 nM
IC50 [2]: 0.425 nM
EC50 [3]: 2.52 nM
EC50 [4]: 1 nM
Kd (human TIGIT-his protein [5]): 0.322 nM
Kd [6]: 3.12 nM
IC50 [7]: 0.889 nM
B1: anti-TIGIT monoclonal antibody ADI-55796 (antibody, V domains shown)
VH: QLQLQESGPGLVKPAETLSLTCTVSGGSISSYDHYWTWIRQPPGKGLEWIGTVYYSGSTFHNPSLKSRVTIPVDTSKNQFSLKLSSVTAADTAVYYCARVGPDVSHPPFDYWGQGTLVTVSS
VL: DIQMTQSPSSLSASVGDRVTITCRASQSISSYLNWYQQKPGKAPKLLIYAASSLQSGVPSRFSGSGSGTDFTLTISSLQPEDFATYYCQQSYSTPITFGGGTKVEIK

EC50 [8]: 0.66 nM
binding result (mouse TIGIT-his protein): no binding (tested: 100 nM)
EC50 [9]: 0.658 nM
EC50 [10]: 1.12 nM
Kd (human TIGIT-his protein [11]): 3.5 nM
Kd [12]: 24.1 nM
EC50 [13]: 1.13 nM
binding result [14]: no binding
IC50 [15]: 0.356 nM
IC50 [16]: 0.36 nM
EC50 [17]: 0.0517 nM
B2: anti-TIGIT monoclonal antibody 55812-G1 (antibody, human IgG1, V domains shown)
VH: QVQLVQSGAEVKKPGASVKVSCKASGYAFTGYYMHWVRQAPGQGLEWMGSIIPFSGEANYAQKFQGRVTMTRDTSISTAYMELSRLRSDDTAVYYCARGPGSLDRLWYYYYGMDVWGQGTTVTVSS
VL: not shown
notes: Wild-type human IgG1 heavy chain constant region, human kappa light chain constant region; HEK293

EC50 [8]: 0.7 nM
binding result (mouse TIGIT-his protein): no binding (tested: 100 nM)
EC50 [9]: 0.698 nM
EC50 [10]: 1.28 nM
Kd (human TIGIT-his protein [11]): 3.4 nM
Kd [12]: 22.1 nM
EC50 [13]: 1.28 nM
binding result [14]: no binding
IC50 [15]: 0.319 nM
IC50 [16]: 0.32 nM
EC50 [17]: 0.057 nM
B3: anti-TIGIT monoclonal antibody 55812-G1LALA (antibody, human IgG1, V domains shown)
VH: B2 VH
VL: not shown
notes: Human IgG1 heavy chain constant region modified by L234A, L235A; human kappa light chain constant region; HEK293

EC50 [1]: 0.964 nM
IC50 [2]: 0.296 nM
binding result [3]: no binding
EC50 [4]: 1.5 nM
Kd (human TIGIT-his protein [5]): 1.9 nM
Kd [6]: 34 nM
B4: anti-TIGIT monoclonal antibody ADI-55812 (antibody, V domains shown)
VH: B2 VH
VL: not shown
